± gives the uncertainty stated by the source.
experiment: abundance fitness (aPCA) (normalised: wild type 0, dead -1); higher = more abundant; growth selection in yeast, the domain comes from the species named; conditions: Saccharomyces cerevisiae (strain ATCC 204508 / S288c)

Point of comparison: “E3 ubiquitin-protein ligase RSP5 Q339A, P39940”, abundance fitness -0.143 ± 0.047. Against it:
- E3 ubiquitin-protein ligase RSP5 P343G, P39940 — higher, -0.018 ± 0.05
- E3 ubiquitin-protein ligase RSP5 P343H, P39940 — higher, 0.09 ± 0.082
- E3 ubiquitin-protein ligase RSP5 P343I, P39940 — higher, 0.017 ± 0.099
- E3 ubiquitin-protein ligase RSP5 P343K, P39940 — higher, 0.102 ± 0.07
- E3 ubiquitin-protein ligase RSP5 P343L, P39940 — higher, -0.021 ± 0.048
- E3 ubiquitin-protein ligase RSP5 P343N, P39940 — higher, 0.116 ± 0.098
- E3 ubiquitin-protein ligase RSP5 P343Q, P39940 — within error, -0.041 ± 0.059
- E3 ubiquitin-protein ligase RSP5 P343S, P39940 — higher, 0.07 ± 0.056
- E3 ubiquitin-protein ligase RSP5 P343T, P39940 — higher, 0.014 ± 0.057
- E3 ubiquitin-protein ligase RSP5 P343W, P39940 — lower, -0.313 ± 0.054
- E3 ubiquitin-protein ligase RSP5 P343Y, P39940 — within error, -0.402 ± 0.35
- E3 ubiquitin-protein ligase RSP5 P362A, P39940 — lower, -0.747 ± 0.046
- E3 ubiquitin-protein ligase RSP5 P362D, P39940 — lower, -0.813 ± 0.097
- E3 ubiquitin-protein ligase RSP5 P362E, P39940 — lower, -0.723 ± 0.076
- E3 ubiquitin-protein ligase RSP5 P362F, P39940 — lower, -1.41 ± 0.47
- E3 ubiquitin-protein ligase RSP5 P362G, P39940 — lower, -0.852 ± 0.044
- E3 ubiquitin-protein ligase RSP5 P362H, P39940 — lower, -0.905 ± 0.28
- E3 ubiquitin-protein ligase RSP5 P362I, P39940 — lower, -0.791 ± 0.12
- E3 ubiquitin-protein ligase RSP5 P362K, P39940 — lower, -1.01 ± 0.1
- E3 ubiquitin-protein ligase RSP5 P362L, P39940 — lower, -0.993 ± 0.051
- E3 ubiquitin-protein ligase RSP5 P362M, P39940 — lower, -1.2 ± 0.35
- E3 ubiquitin-protein ligase RSP5 P362Q, P39940 — lower, -0.709 ± 0.093
- E3 ubiquitin-protein ligase RSP5 P362S, P39940 — lower, -1.09 ± 0.065
- E3 ubiquitin-protein ligase RSP5 P362T, P39940 — lower, -0.708 ± 0.067
- E3 ubiquitin-protein ligase RSP5 P362V, P39940 — lower, -0.705 ± 0.048
- E3 ubiquitin-protein ligase RSP5 P362W, P39940 — lower, -1.21 ± 0.062
- E3 ubiquitin-protein ligase RSP5 P362Y, P39940 — lower, -1.01 ± 0.18
- E3 ubiquitin-protein ligase RSP5 Q339C, P39940 — within error, -0.092 ± 0.07
- E3 ubiquitin-protein ligase RSP5 Q339D, P39940 — lower, -0.602 ± 0.09
- E3 ubiquitin-protein ligase RSP5 Q339E, P39940 — higher, 0.006 ± 0.054
- E3 ubiquitin-protein ligase RSP5 Q339F, P39940 — within error, -0.26 ± 0.074
- E3 ubiquitin-protein ligase RSP5 Q339G, P39940 — lower, -0.256 ± 0.044
- E3 ubiquitin-protein ligase RSP5 Q339H, P39940 — within error, -0.134 ± 0.058
- E3 ubiquitin-protein ligase RSP5 Q339I, P39940 — within error, -0.073 ± 0.069
- E3 ubiquitin-protein ligase RSP5 Q339K, P39940 — higher, 0.026 ± 0.077
- E3 ubiquitin-protein ligase RSP5 Q339L, P39940 — within error, -0.109 ± 0.051
- E3 ubiquitin-protein ligase RSP5 Q339M, P39940 — higher, -0.008 ± 0.069
- E3 ubiquitin-protein ligase RSP5 Q339P, P39940 — lower, -0.297 ± 0.062
- E3 ubiquitin-protein ligase RSP5 Q339R, P39940 — higher, -0.051 ± 0.043
- E3 ubiquitin-protein ligase RSP5 Q339S, P39940 — within error, -0.138 ± 0.047
- E3 ubiquitin-protein ligase RSP5 Q339T, P39940 — within error, -0.11 ± 0.065
- E3 ubiquitin-protein ligase RSP5 Q339V, P39940 — within error, -0.076 ± 0.045
- E3 ubiquitin-protein ligase RSP5 Q339W, P39940 — lower, -0.406 ± 0.046
- E3 ubiquitin-protein ligase RSP5 Q339Y, P39940 — within error, -0.181 ± 0.1
- E3 ubiquitin-protein ligase RSP5 Q365A, P39940 — higher, 0.097 ± 0.044
- E3 ubiquitin-protein ligase RSP5 Q365C, P39940 — higher, 0.077 ± 0.089
- E3 ubiquitin-protein ligase RSP5 Q365E, P39940 — higher, 0.057 ± 0.059
- E3 ubiquitin-protein ligase RSP5 Q365F, P39940 — within error, -0.034 ± 0.15
- E3 ubiquitin-protein ligase RSP5 Q365G, P39940 — higher, 0.052 ± 0.046
- E3 ubiquitin-protein ligase RSP5 Q365H, P39940 — higher, 0.167 ± 0.11

— the Human Domainome abundance scans (Beltran et al. 2025)
